Each block holds one molecule with its values, some of them ahead of it. Non-standard residues stand in square brackets, D forms with d. No end group written: not given here. pY = N[C@@H](Cc1ccc(OP(=O)(O)O)cc1)C(=O)O; pT = C[C@@H](OP(=O)(O)O)[C@H](N)C(=O)O
How the values were obtained:
[1] = target: BRCTtide-7pS, GAAYDI-pS-…; assay: ITC, peptide injected into 15 µM GST-(BRCT)2
[2] = target: BRCTtide-7pT, GAAYDI-pT-…; assay: ITC, peptide injected into 15 µM GST-(BRCT)2
[3] = target: PoloBoxtide with phosphoserine substituted for phosphothreonine; assay: ITC
[4] = target: PoloBoxtide with Asn substituted for Pro at pThr+1; assay: ITC
[5] = target: PoloBoxtide-optimal, MAGPMQ-S-pT-P-LNGAKK; assay: isothermal titration calorimetry (ITC), peptide injected into 15 µM PBD
[6] = target: Plk-1 Polo-box Domain (PBD, residues 326-603) (human) (UniProt P53350); assay: isothermal titration calorimetry [table]
[7] = target: Plk-1 Polo-box Domain (PBD, residues 326-603) (human) (UniProt P53350); assay: isothermal titration calorimetry
[8] = target: T1, Cdc25C, mitotically phosphorylated (up-shifted) form, endogenous in nocodazole-arrested HeLa cells (human, UniProt P30307 1-473, limits assumed, extensively phosphorylated at the N-terminus in mitosis, including phosphothreonine at 130); assay: Ni2+ bead pull-down from nocodazole-arrested transfected HeLa cells, blot α-Cdc25
T1 construct: also called mitotically up-shifted form of Cdc25C; mitotically phosphorylated Cdc25C
T1 sequence (looked up): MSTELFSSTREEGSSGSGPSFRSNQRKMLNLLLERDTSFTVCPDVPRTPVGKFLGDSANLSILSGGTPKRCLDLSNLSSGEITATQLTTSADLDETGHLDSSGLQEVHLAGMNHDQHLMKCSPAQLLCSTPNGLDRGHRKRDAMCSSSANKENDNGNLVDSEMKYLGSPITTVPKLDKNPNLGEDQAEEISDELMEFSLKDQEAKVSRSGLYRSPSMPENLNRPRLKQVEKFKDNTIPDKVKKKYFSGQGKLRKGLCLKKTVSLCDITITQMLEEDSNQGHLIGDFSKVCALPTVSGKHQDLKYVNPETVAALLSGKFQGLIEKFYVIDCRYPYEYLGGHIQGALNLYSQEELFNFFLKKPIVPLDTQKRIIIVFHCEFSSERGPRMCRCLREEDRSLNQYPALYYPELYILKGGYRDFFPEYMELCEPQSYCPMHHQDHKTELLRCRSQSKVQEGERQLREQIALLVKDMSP

[9] = target: T2, Plk-1 Polo-box Domain (PBD, residues 326-603) (human, UniProt P53350 326-603); assay: isothermal titration calorimetry [table]
T2 construct: also called Plk-1 PBD; Plk1 PBD
Protocol: (§1) Some peptides contained an additional tyrosine residue to facilitate concentration determination by optical absorbance. Calorimetry measurements were performed using a VP-ITC microcalorimeter (MicroCal Inc., Studio City, Calif.). […] Thirty injections were performed with a spacing of 240 s and a reference power of 25 μCal/s. Binding isotherms were plotted and analyzed using Origin Software (MicroCal Inc. Studio City, Calif.).

[10] = target: T2, Plk-1 Polo-box Domain (PBD, residues …); assay: isothermal titration calorimetry [ITC panels]
Protocol: as §1

Kd [1]: 400 nM
Molecule: GST-BRCA1 tandem BRCT domains (residues 1634-1863) (from UniProt P38398 1634-1863)

Kd [1]: 280 nM | Kd [2]: 14300 nM
Molecule: GST-PTIP tandem BRCT domains (residues 550-757) (from UniProt Q6ZW49 862-1069)

fold drop in affinity against PoloBoxtide-optimal [3]: 7 fold | fold increase in Kd against PoloBoxtide-optimal [4]: > 5 fold | Kd [5]: 280 nM
Molecule: Plk-1 Polo-box Domain (PBD, residues 326-603) (from UniProt P53350 326-603)

Kd [6]: 1500 nM
Molecule: PoloBoxtide with Asn substituted for Pro at pThr+1 (peptide)

Kd [6]: 2100 nM
Molecule: PoloBoxtide with phosphoserine substituted for phosphothreonine (peptide)

Kd [6]: 280 nM | Kd [7]: 280 nM
Molecule: PoloBoxtide-optimal, MAGPMQ-S-pT-P-LNGAKK (peptide)

binding result [8]: no binding
B1: His-Xpress-tagged control Plk1 PBD construct lacking the second Polo-box (residues 326-506) (other)
chain: SIAPSSLDPSNRKPLTVLNKGLENPLPERPREKEEPVVRETGEVVDCHLSDMLQQLHSVNASKPSERGLVRQEEAEDPACIPIFWVSKWVDYSDKYGLGYQLCDNSVGVLFNDSTRLILYNDGDSLQYIERDGTESYLTVSSHPNSLMKKITLLKYFRNYMSEHLLKAGANITPREGDELA
notes: not shown: His-Xpress tag

binding result [9]: no binding (tested: 150 µM Plk-1 PBD)
Molecule: MAGPMQA[pT]PLNGAKK [PoloBoxtide with Ser at pThr-1 replaced with Ala]

B2: PoloBoxtide-7V (peptide)
peptide: MAGPMQV[pT]PLNGAKK
notes: also called phosphopeptide whose serine at pThr-1 was mutated to valine
binding result [10]: no binding (tested: molar ratio about 2.7)

binding result [9]: no binding (tested: 150 µM Plk-1 PBD)
Molecule: MAGPMQS[pY]PLNGAKK (built from the optimal peptide) [PoloBoxtide with phosphotyrosine substituted for phosphothreonine]

binding result [9]: no binding (tested: 150 µM Plk-1 PBD)
Molecule: MAGPMQC[pT]PLNGAKK [PoloBoxtide with Ser at pThr-1 replaced with Cys]

binding result [9]: no binding (tested: 150 µM Plk-1 PBD)
Molecule: MAGPMQG[pT]PLNGAKK [PoloBoxtide with Ser at pThr-1 replaced with Gly]

binding result [9]: no binding (tested: 150 µM Plk-1 PBD)
Molecule: MAGPMQT[pT]PLNGAKK [PoloBoxtide with Ser at pThr-1 replaced with Thr]

Source: patent publication US20050196808A1 (published 2005)
